Data reported in patent US20230407326A1, “INDUCIBLE PROMOTER FOR VIRAL VECTOR PRODUCTION” (ASKLEPIOS BIOPHARMACEUTICAL, INC., priority 2020, published 2023).

B1: FMP-02: forskolin-inducible promoter, 8×AP1(1) TFBS with MinTK, SEQ ID NO: 8 (nucleic acid)
DNA: TGAGTCAGATGATGCGTAGCTAGTAGTTGAGTCAGATGATGCGTAGCTAGTAGTTGAGTCAGATGATGCGTAGCTAGTAGTTGAGTCAGATGATGCGTAGCTAGTAGTTGAGTCAGATGATGCGTAGCTAGTAGTTGAGTCAGATGATGCGTAGCTAGTAGTTGAGTCAGATGATGCGTAGCTAGTAGTTGAGTCAGTAGTCGTATGCTGATGCGCAGTTAGCGTAGCTGAGGTACCGTCGACGATATCGGATCCTTCGCATATTAAGGTGACGCGTGTGGCCTCGAACACCGAGCGACCCTGCAGCGACCCGCTTAA
B2: FORCSV-10: forskolin-inducible promoter, 5×cAMPRE and 3×AP1(2) TFBS with SV40-MP, SEQ ID NO: 6 (nucleic acid)
DNA: TGACGTCACGATTACCATTGACGTCACGATTACCATTGACGTCACGATTACCATTGACGTCACGATTACCATTGACGTCAGCGATTAAGATGACTCAGCGATTAAGATGACTCAGCGATTAAGATGACTCAGCGATTAAGATGACTCACTAGCCCGGGCTCGAGATCTGCGATCTGCATCTCAATTAGTCAGCAACCATAGTCCCGCCCCTAACTCCGCCCATCCCGCCCCTAACTCCGCCCAGTTCCGCCCATTCTCCGCCCCATCGCTGACTAATTTTTTTTATTTATGCAGAGGCCGAGGCCGCCTCGGCCTCTGAGCTATTCCAGAAGTAGTGAGGAGGCTTTTTTGGAGGCCTAGGCTTTTGCAAA
B3: SYNP-HYP-001: synthetic hypoxia-inducible promoter, four HRE2 and a CMV minimal promoter, SEQ ID NO: 3 (nucleic acid)
DNA: CTGCACGTACTGCACGTACTGCACGTACTGCACGTATGGGTACCGTCGACGATATCGGATCCAGGTCTATATAAGCAGAGCTCGTTTAGTGAACCGTCAGATCGCCTAGATACGCCATCCACGCTGTTTTGACCTCCATAGAAGATCGCCACC
B4: TATA-m6a: forskolin responsive enhancer element in combination with TATA-m6A minimal promoter, SEQ ID NO: 209 (nucleic acid)
DNA: AATAAAATATCTTTATTTTCATTACATCTGTGTGTTGGTTTTTTGTGTGCCATTGACGTCACGATTTGACGTCAACCATTGACGTCACGATTTGACGTCAACCATTGACGTCACGATTTGACGTCACGATTTGACGTCAACCATTGACTCACGATTTGACTCAACCATTGACTCACGATTTGACTCAACCATTGACTCACGATTTGACTCACGATTTATAAAAGGCAGAGCTCGTTTAGTGAACCGAAGCTTGGACTAAAGCGGACTTGTCTCGAG
B5: FORN-pJB42: forskolin responsive enhancer element in combination with pJB42 minimal promoter, SEQ ID NO: 211 (nucleic acid)
DNA: AATAAAATATCTTTATTTTCATTACATCTGTGTGTTGGTTTTTTGTGTGCCATTGACGTCACGATTTGACGTCAACCATTGACGTCACGATTTGACGTCAACCATTGACGTCACGATTTGACGTCACGATTTGACGTCAACCATTGACTCACGATTTGACTCAACCATTGACTCACGATTTGACTCAACCATTGACTCACGATTTGACTCACGATTCTGACAAATTCAGTATAAAAGCTTGGGGCTGGGGCCGAGCACTGGGGACTTTGAGGGTGGCCAGGCCAGCGTAGGAGGCCAGCGTAGGATCCTGCTGGGAGCGGGGAACTGAGGGAAGCGACGCCGAGAAAGCAGGCGTACCACGGAGGGAGAGAAAAGCTCCGGAAGCCCAGCAGCGGCCACC

Key:
Format in all cases: cell-based, human
HEK293-F cells [1] = test: Luciferase expression from forskolin-inducible promoters in HEK293-F cells after induction with forskolin; settings: 20 μM forskolin
Experimental: The forskolin-inducible promoters FORCSV-10, FOR-CMV-009, FMP-02 and FLP-01 were used to drive expression of luciferase in a PM-RQ vector in the suspension cell line HEK293-F. The tested promoters were synthesized directly upstream of the ATG of PM-RQ plasmid and the suspension cell lines were transiently transfected with the PM-RQ plasmid.
(§1) 40 ml of cells were grown in a 250 ml vented Erlenmeyer flask (Sigma-Aldrich CLS431144) at 37° C., 20% O2, 8% CO2 with agitation at 100 rpm. Cells were seeded as described in the manufacturer's instructions (300,000 cells/ml). HEK293-F were obtained from Thermofisher, R79007.
(§2) One day before transfection, the cells were counted using a haemocytometer and split to 500,000 cells/ml.
On the day of transfection, the cells are seeded to 1,000,000 cells/ml in 500 μl of appropriate medium (Freestyle 293 expression medium, 12338002) in a 24 well plate. 0.625 μg of DNA per well was then added to 10 μl of OptiMem medium (Thermofisher; 11058021) and incubated for 5 minutes at room temperature.
Concurrently, 0.625 μl of Max reagent (Thermofisher, 16447100) was made up to 10 μl by addition of OptiMem and incubated for 5 minutes at room temperature. […]
24 hours after transfection, the promoters were induced by addition of 20 μM forskolin and luciferase activity was measured 0, 3, 5 and 24 hours after induction. Luciferase activity was measured as previously described.

HEK293-F cells [2] = test: Luciferase expression from hypoxia-inducible promoters in transiently transfected HEK293-F cells under hypoxia; settings: hypoxia 5% oxygen, 3, 5 and 24 hrs
Experimental: as §1, §2
On the day of transfection, the cells are seeded to 1,000,000 cells/ml in 500 μl of appropriate medium (Freestyle 293 expression medium, 12338002) in a 24 well plate. 0.625 μg of DNA per well was then added to 10 μl of OptiMem medium (Thermofisher; 11058021) and incubated for 5 minutes at room temperature. […]
After transfection the cells were incubated for 24 hrs in normoxia conditions (20% oxygen) before being switched to a gas mix of 5% oxygen, 10% carbon dioxide and 85% nitrogen (hypoxia). […] Induction of the promoters was assessed by using luciferase activity after 3, 5 and 24 hrs in hypoxia.
Luciferase activity was measured using LARII (Dual Luciferase Reporter 1000 assay system, Promega, E1980).
Media was removed from the cells at the respective time point (0, 3, 5, 24 hrs after induction). […] 10 μl of supernatant was pipetted into white 96-well plate and luminescence measured by addition of 50 μl of LARII substrate. […]

Pro10 cells [3] = test: Rep78 expression (western blot) from new forskolin promoter designs in Pro10 cells; settings: Pro10, 10 uM forskolin or DMSO, 24 hrs
Experimental: Each of the promoters were tested for their ability to induce expression of the Rep78 protein. To eliminate the expression of Rep52 the ATG start codon in Rep52 was mutated to an AGG. All constructs were synthesized by Genewiz, see sequence files for full plasmid.
Pro10 cells were cultured and transfected using lipofectamine 2000 as previously described herein above. 24 hrs after transfection 10 uM forskolin was added to the cells. Control wells were given DMSO as forskolin was dissolved in this carrier. After another 24 hrs the cells were then lysed and lysates were analyzed for Rep78 expression via western blot (previously described). The best performing promoters were the TATA-m6a, YB and pJB42 (FIG. 29). […] The rest of the promoters have some level of background which indicates leaky expression.

Pro10 cells [4] = test: Activation of FORN-pJB42 driving Rep78 by adenovirus helper functions; settings: with and without adenovirus helper functions, forskolin or DMSO
Experimental: The ability for the aforementioned helper functions to induce the activity of the best performing promoter FORN-pJB42 was next assessed. Transfections were carried out as previously described. Conditions were as follows: FORN-pJB42 controlling expression of Rep78 was transfected with and without the adenovirus helper functions. In addition, the transfected cells were also treated with forskolin at […] or vehicle DMSO control. Analysis of activity was as described in the previous section. […] However, it should be noted that full activity is not obtained until both the adenovirus helper functions and 10 μM forskolin were present.

| Molecule | promoter strength relative to the other promoters (HEK293-F cells [1]) | Rep78 expression (western blot) (Pro10 cells [3]) | further results |
| --- | --- | --- | --- |
| B1 | weakest | – | – |
| B2 | strongest | – | – |
| B3 | – | – | promoter activity (luciferase) relative to the other promoters (HEK293-F cells [2]): stronger |
| B4 | – | no Rep78 expression in the absence of forskolin but strong expression on the presence | – |
| B5 | – | no Rep78 expression in the absence of forskolin but strong expression on the presence | activation of the promoter driving Rep78 (Pro10 cells [4]): activated by the presence of the helper functions, even in the absence of forskolin |
